# Measured values as given in the Immune Epitope Database (IEDB).
# Experiments:
# HLA-A*02:02 = test: IEDB peptide-MHC binding, purified MHC/competitive/radioactivity; filed as Kd, often an IC50 or EC50 that approximates it; ≥ and ≤ were set here for values at or beyond the usual limits of such assays
# HLA-A*02:03 = test: as above
# HLA-A*68:02 [1] = test: as above
# HLA-A*02:06 = test: as above
# HLA-A*02:01 [2] = test: as above
# HLA-A*02:01 [3] = test: IEDB peptide-MHC binding, purified MHC/competitive/fluorescence; ≥ and ≤ were set here for values at or beyond the usual limits of such assays; conditions: source organism: Zaire ebolavirus
# HLA-B*15:01 [4] = test: as above; conditions: source organism: Zaire ebolavirus
# HLA-A*24:02 = test: as above
# HLA-B*15:03 = test: IEDB peptide-MHC binding, purified MHC/competitive/radioactivity; filed as Kd, often an IC50 or EC50 that approximates it; ≥ and ≤ were set here for values at or beyond the usual limits of such assays
# HLA-B*58:01 = test: as above
# HLA-A*30:01 = test: as above; conditions: source organism: Dengue virus 2 Jamaica/1409/1983
# HLA-B*35:01 = test: as above
# HLA-B*07:02 [5] = test: as above
# HLA-B*51:01 = test: as above
# HLA-B*54:01 = test: as above
# HLA-B*53:01 = test: as above
# HLA-A*03:01 = test: IEDB peptide-MHC binding, purified MHC/competitive/fluorescence; filed as Kd, often an IC50 or EC50 that approximates it; ≥ and ≤ were set here for values at or beyond the usual limits of such assays
# HLA-A*11:01 = test: IEDB peptide-MHC binding, purified MHC/competitive/fluorescence; ≥ and ≤ were set here for values at or beyond the usual limits of such assays
# HLA-B*07:02 [6] = test: as above
# HLA-A*68:02 [7] = test: IEDB peptide-MHC binding, purified MHC/competitive/fluorescence; filed as Kd, often an IC50 or EC50 that approximates it; ≥ and ≤ were set here for values at or beyond the usual limits of such assays; conditions: source organism: Entamoeba dispar SAW760
# HLA-A*24:03 = test: as above; conditions: source organism: Influenza A virus (A/Kayano/57(H2N2))
# HLA-B*15:01 [8] = test: IEDB peptide-MHC binding, purified MHC/competitive/radioactivity; filed as Kd, often an IC50 or EC50 that approximates it; ≥ and ≤ were set here for values at or beyond the usual limits of such assays; conditions: source organism: Vaccinia virus WR
# HLA-B*15:01 [9] = test: IEDB peptide-MHC binding, purified MHC/competitive/fluorescence; filed as Kd, often an IC50 or EC50 that approximates it; ≥ and ≤ were set here for values at or beyond the usual limits of such assays; conditions: source organism: Escherichia coli B171
# HLA-A*69:01 = test: IEDB peptide-MHC binding, purified MHC/direct/fluorescence; filed as Kd, often an IC50 or EC50 that approximates it; ≥ and ≤ were set here for values at or beyond the usual limits of such assays; conditions: source organism: Marburg virus - Musoke, Kenya, 1980
# HLA-A*02:12 = test: as above; conditions: source organism: Ravn virus - Ravn, Kenya, 1987
# HLA-A*02:01 [10] = test: as above; conditions: source organism: Marburg virus - Musoke, Kenya, 1980
# [11] = source organism: Lassa virus Josiah
# [12] = source organism: Zaire ebolavirus
# [13] = source organism: Vaccinia virus WR
# [14] = source organism: SARS coronavirus Tor2
# [15] = source organism: Sudan ebolavirus
# [16] = source organism: Lymphocytic choriomeningitis virus (strain WE)
# [17] = source organism: Triticum aestivum
# [18] = source organism: Human immunodeficiency virus type 1 BH10
sequence,measurement,setting,value
IMTSYQYLI,Kd,HLA-A*02:02; [11],210 nM
same,Kd,HLA-A*02:03; [11],78.1 nM
same,Kd,HLA-A*68:02 [1]; [11],698 nM
same,Kd,HLA-A*02:06; [11],597 nM
same,Kd,HLA-A*02:01 [2]; [11],33.3 nM
IQVHAEQGL,IC50,HLA-A*02:01 [3],≥ 105000 nM
same,IC50,HLA-B*15:01 [4],33000 nM
IRGFPRCRY,IC50,HLA-A*24:02; [12],66000 nM
same,IC50,HLA-B*15:01 [4],≥ 242000 nM
ISSLGILVF,Kd,HLA-B*15:03; [13],81.7 nM
ISSTPLAENT,Kd,HLA-B*58:01; source organism: Dengue virus 4 Dominica/814669/1981,951 nM
KARSTPFNM,Kd,HLA-A*30:01,169 nM
same,Kd,HLA-B*58:01; source organism: Dengue virus 2 Jamaica/1409/1983,194 nM
KHAQRIETW,Kd,HLA-B*58:01; source organism: Dengue virus 2 Peru/IQT2913/1996,482 nM
KKMTCGQPL,Kd,HLA-B*15:03; [13],1.51 nM
KPASRELSV,Kd,HLA-B*35:01; [14],11800 nM
same,Kd,HLA-B*07:02 [5]; [14],5.7 nM
same,Kd,HLA-B*51:01; [14],631 nM
same,Kd,HLA-B*54:01; [14],9540 nM
same,Kd,HLA-B*53:01; [14],14400 nM
KPVIVPDIKL,Kd,HLA-B*35:01; [13],8870 nM
same,Kd,HLA-B*07:02 [5]; [13],236 nM
same,Kd,HLA-B*51:01; [13],≥ 69600 nM
same,Kd,HLA-B*54:01; [13],3810 nM
same,Kd,HLA-B*53:01; [13],5200 nM
KTYYHHTGY,Kd,HLA-A*03:01; source organism: Francisella tularensis subsp. holarctica OSU18,5.2 nM
LDAVIRANN,IC50,HLA-A*11:01; [13],≥ 169000 nM
LPNPAFIHI,IC50,HLA-B*07:02 [6]; source organism: Variola virus,11000 nM
LPRDKFRKS,IC50,HLA-B*07:02 [6]; [15],16900 nM
LRKRSRRQT,IC50,HLA-B*07:02 [6]; [15],18800 nM
MPEWVNFKF,Kd,HLA-B*35:01; [16],8.71 nM
same,Kd,HLA-B*07:02 [5]; [16],2210 nM
same,Kd,HLA-B*51:01; [16],≥ 20400 nM
same,Kd,HLA-B*54:01; [16],1000 nM
same,Kd,HLA-B*53:01; [16],20 nM
MYIFLPVML,Kd,HLA-A*68:02 [7],94.1 nM
NPNCLEWLRA,Kd,HLA-B*35:01; [13],1160 nM
same,Kd,HLA-B*07:02 [5]; [13],17400 nM
same,Kd,HLA-B*51:01; [13],≥ 69600 nM
same,Kd,HLA-B*54:01; [13],20.2 nM
same,Kd,HLA-B*53:01; [13],2050 nM
NYPVAKGSY,Kd,HLA-A*24:03,≥ 20000 nM
PPLISILMI,Kd,HLA-B*35:01; [13],19300 nM
same,Kd,HLA-B*07:02 [5]; [13],7300 nM
same,Kd,HLA-B*51:01; [13],91.2 nM
same,Kd,HLA-B*54:01; [13],8780 nM
same,Kd,HLA-B*53:01; [13],818 nM
QLYSTLLSF,Kd,HLA-B*15:03; [13],0.565 nM
same,Kd,HLA-B*15:01 [8],3 nM
QPFLQPQL,Kd,HLA-B*35:01; [17],≥ 87800 nM
same,Kd,HLA-B*07:02 [5]; [17],349 nM
same,Kd,HLA-B*51:01; [17],1110 nM
same,Kd,HLA-B*54:01; [17],6350 nM
same,Kd,HLA-B*53:01; [17],≥ 87700 nM
RAAVEDEEF,Kd,HLA-B*58:01; source organism: Dengue virus 3 Singapore/8120/1995,865 nM
RGPGRAFVTI,Kd,HLA-A*02:02; [18],≥ 70000 nM
same,Kd,HLA-A*02:03; [18],12200 nM
same,Kd,HLA-A*68:02 [1]; [18],≥ 69800 nM
same,Kd,HLA-A*02:06; [18],5790 nM
same,Kd,HLA-A*02:01 [2]; [18],4600 nM
RPRVTKQYIV,Kd,HLA-B*35:01; [13],11500 nM
same,Kd,HLA-B*07:02 [5]; [13],4.55 nM
same,Kd,HLA-B*51:01; [13],14900 nM
same,Kd,HLA-B*54:01; [13],106 nM
same,Kd,HLA-B*53:01; [13],4450 nM
RQVVDFFKF,Kd,HLA-B*15:03; [13],0.344 nM
RSSRGVQFL,Kd,HLA-B*15:03; source organism: Vaccinia virus Copenhagen,123 nM
RSVSGDLIL,Kd,HLA-B*58:01; source organism: Dengue virus 1 Brazil/97-11/1997,9.84 nM
RVDEIILFK,Kd,HLA-A*03:01; source organism: Bacillus cereus G9241,156 nM
SSVSPPNVL,Kd,HLA-B*15:03; [13],18.3 nM
TESDMDYHK,IC50,HLA-A*11:01; [12],≥ 174000 nM
TFLQSPPIR,IC50,HLA-A*11:01; [15],≥ 119000 nM
same,IC50,HLA-A*24:02; [15],38800 nM
TKVMFVIRF,Kd,HLA-B*15:03; [13],30.8 nM
TLYDRYLIH,Kd,HLA-A*03:01; source organism: Coxiella burnetii RSA 331,6.9 nM
VEVEPGSSF,Kd,HLA-B*15:03; [13],1.66 nM
VMAGVFARY,Kd,HLA-A*03:01; source organism: Escherichia coli B171,21.4 nM
same,Kd,HLA-B*15:01 [9],61.7 nM
YLPEDSDIL,Kd,HLA-A*69:01,≥ 20000 nM
same,Kd,HLA-A*02:12,6 nM
same,Kd,HLA-A*02:01 [10],525 nM
